Measured values from PMC5705603.

Molecular target: Segmentally labelled CheA (P1 domain and P2-5 part labelled differently and joined) (Escherichia coli) (UniProt P07363)
Assay: NMR titration

Chain of UniProt P07363 (P07363 whole entry, the tested form may be a part): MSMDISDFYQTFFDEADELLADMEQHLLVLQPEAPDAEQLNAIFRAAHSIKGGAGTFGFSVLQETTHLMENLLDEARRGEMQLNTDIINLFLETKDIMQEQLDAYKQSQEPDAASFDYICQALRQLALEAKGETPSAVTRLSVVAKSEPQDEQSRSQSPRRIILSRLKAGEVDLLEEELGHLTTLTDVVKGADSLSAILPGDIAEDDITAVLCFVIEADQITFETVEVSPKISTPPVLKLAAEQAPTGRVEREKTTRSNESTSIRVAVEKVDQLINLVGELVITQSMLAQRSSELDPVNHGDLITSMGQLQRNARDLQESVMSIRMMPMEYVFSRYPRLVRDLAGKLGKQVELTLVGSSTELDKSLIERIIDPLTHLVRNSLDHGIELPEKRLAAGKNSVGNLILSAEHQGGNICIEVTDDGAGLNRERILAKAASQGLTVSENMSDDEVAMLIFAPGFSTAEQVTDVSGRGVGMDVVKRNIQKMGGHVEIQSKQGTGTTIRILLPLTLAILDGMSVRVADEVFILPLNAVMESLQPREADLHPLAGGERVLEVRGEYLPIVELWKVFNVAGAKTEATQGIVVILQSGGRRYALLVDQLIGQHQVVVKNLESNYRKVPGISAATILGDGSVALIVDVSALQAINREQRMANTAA

CheY from Escherichia coli, wild type (from UniProt P0AE67 1-129) (natural protein)
stoichiometry N (CheY per CheA): 2
